Reference: US8987192B2, “Potent and selective mediators of cholesterol efflux” (The Regents of the University of California, priority 2006, dated 2015)
Entries after “also recorded” stand apart in the source; their conditions may differ. Where no end group is shown, it is not given here. [ ]: non-standard residue; d: D form.

Assays:
[1] = scaled values = (raw log(P) + 2.061)/4.484; cited from earlier work
ABCA1 [2] = experiment: Cholesterol efflux in the absence and presence of ABCA1 (mouse macrophages and HeLa cells transfected with ABCA1 cDNA); assay type: cell-based; conditions: 8 hours, saturating peptide >30-fold Km; for requirement of ABCA1 for cholesterol efflux activity: mouse macrophages and ABCA1-transfected HeLa
Excerpt: The large excess of polypeptide was provided to determine the extent (if any) of non-specific efflux, in the absence of ABCA1 induction.

ABCA1 [3] = molecular target: ABCA1 (Mus musculus, UniProt P41233); experiment: Cholesterol efflux from [3H]cholesterol-labeled ABCA1-expressing J774 mouse macrophages; assay type: cell-based; design: to upregulate cellular ABCA1 protein; endogenous in cells; host or cells: J774 mouse macrophages; conditions: for ABCA1-dependent cholesterol efflux: macrophages with vs without cAMP; for cholesterol efflux from macrophages not induced for ABCA1 (non-specific): no cAMP; for ABCA1-dependent cholesterol efflux at 30 μg/ml: 30 μg/ml peptide
Procedure: In some embodiments, a polypeptide known to mediate cholesterol efflux (e.g., helix 9/10 of Apo A-I) is used to screen for additional mediators of cholesterol efflux in a cell based assay. For example, cell lines in which cholesterol efflux can be enhanced using a cAMP analog that up-regulates ABCA1 protein expression (e.g., J774 macrophages) can conveniently be used to assess the ability of a polypeptide of the present invention to mediate cholesterol efflux. The cells are incubated with labeled cholesterol (e.g., [^3H]cholesterol) under conditions appropriate for cholesterol uptake by the cells. Thus, cAMP or cAMP analogs (e.g., CPT-cAMP) are incubated with the cells for a suitable time before the initiation of cellular cholesterol efflux, i.e., prior to contacting the cells with a test polypeptide. Measurement of labeled cholesterol appearing in the medium is used to determine the cholesterol efflux mediating activity of the test polypeptide.
J774 mouse macrophages labeled with [^3H]cholesterol were treated (20 h) with 22-hydroxycholesterol (10 μM)/cis-retinoic acid (10 μM) to upregulate cellular ABCA1 protein.
Mouse macrophages were labeled with [^3H]cholesterol and treated with a cAMP analog to induce ABCA1 expression. […] Km values were calculated using the Michaelis-Menton equation and GraphPad Prism4 software.
Inverted sequence peptides synthesized with all L-amino acids and all D-amino acids were tested for cholesterol efflux activity using ABCA1 expressing J774 macrophages.
Two peptide analogs were engineered; the first replacing glutamic acid residues (E) at position 8 and 15 with aspartic acid residues (D), i.e., E8, 15>D polypeptides, and the second, replacing E1, 7, 8, 15, 18, 19 with D, i.e., all D (Asp) polypeptide. Cholesterol efflux activity was determined using J774 macrophages treated with and without a cAMP analog to modulate ABCA1 expression.
The impact of the A12>L substitution was also tested for activity, which also expanded non-polar surface area.
1-palmitoyl-2-oleoyl-phosphatidylcholine (POPC) was used to evaluate the cholesterol efflux properties of a formulated polypeptide of the present invention. […] To test cholesterol efflux activity, J774 mouse macrophages were labeled with [^3H]cholesterol and treated with and without cAMP to modulate ABCA1 expression.

[4] = molecular target: ABCA1 of J774 mouse macrophages (mouse, UniProt P41233 1-2261); experiment: cell-based or functional assay
Sequence of ABCA1 of J774 mouse macrophages (P41233 whole entry): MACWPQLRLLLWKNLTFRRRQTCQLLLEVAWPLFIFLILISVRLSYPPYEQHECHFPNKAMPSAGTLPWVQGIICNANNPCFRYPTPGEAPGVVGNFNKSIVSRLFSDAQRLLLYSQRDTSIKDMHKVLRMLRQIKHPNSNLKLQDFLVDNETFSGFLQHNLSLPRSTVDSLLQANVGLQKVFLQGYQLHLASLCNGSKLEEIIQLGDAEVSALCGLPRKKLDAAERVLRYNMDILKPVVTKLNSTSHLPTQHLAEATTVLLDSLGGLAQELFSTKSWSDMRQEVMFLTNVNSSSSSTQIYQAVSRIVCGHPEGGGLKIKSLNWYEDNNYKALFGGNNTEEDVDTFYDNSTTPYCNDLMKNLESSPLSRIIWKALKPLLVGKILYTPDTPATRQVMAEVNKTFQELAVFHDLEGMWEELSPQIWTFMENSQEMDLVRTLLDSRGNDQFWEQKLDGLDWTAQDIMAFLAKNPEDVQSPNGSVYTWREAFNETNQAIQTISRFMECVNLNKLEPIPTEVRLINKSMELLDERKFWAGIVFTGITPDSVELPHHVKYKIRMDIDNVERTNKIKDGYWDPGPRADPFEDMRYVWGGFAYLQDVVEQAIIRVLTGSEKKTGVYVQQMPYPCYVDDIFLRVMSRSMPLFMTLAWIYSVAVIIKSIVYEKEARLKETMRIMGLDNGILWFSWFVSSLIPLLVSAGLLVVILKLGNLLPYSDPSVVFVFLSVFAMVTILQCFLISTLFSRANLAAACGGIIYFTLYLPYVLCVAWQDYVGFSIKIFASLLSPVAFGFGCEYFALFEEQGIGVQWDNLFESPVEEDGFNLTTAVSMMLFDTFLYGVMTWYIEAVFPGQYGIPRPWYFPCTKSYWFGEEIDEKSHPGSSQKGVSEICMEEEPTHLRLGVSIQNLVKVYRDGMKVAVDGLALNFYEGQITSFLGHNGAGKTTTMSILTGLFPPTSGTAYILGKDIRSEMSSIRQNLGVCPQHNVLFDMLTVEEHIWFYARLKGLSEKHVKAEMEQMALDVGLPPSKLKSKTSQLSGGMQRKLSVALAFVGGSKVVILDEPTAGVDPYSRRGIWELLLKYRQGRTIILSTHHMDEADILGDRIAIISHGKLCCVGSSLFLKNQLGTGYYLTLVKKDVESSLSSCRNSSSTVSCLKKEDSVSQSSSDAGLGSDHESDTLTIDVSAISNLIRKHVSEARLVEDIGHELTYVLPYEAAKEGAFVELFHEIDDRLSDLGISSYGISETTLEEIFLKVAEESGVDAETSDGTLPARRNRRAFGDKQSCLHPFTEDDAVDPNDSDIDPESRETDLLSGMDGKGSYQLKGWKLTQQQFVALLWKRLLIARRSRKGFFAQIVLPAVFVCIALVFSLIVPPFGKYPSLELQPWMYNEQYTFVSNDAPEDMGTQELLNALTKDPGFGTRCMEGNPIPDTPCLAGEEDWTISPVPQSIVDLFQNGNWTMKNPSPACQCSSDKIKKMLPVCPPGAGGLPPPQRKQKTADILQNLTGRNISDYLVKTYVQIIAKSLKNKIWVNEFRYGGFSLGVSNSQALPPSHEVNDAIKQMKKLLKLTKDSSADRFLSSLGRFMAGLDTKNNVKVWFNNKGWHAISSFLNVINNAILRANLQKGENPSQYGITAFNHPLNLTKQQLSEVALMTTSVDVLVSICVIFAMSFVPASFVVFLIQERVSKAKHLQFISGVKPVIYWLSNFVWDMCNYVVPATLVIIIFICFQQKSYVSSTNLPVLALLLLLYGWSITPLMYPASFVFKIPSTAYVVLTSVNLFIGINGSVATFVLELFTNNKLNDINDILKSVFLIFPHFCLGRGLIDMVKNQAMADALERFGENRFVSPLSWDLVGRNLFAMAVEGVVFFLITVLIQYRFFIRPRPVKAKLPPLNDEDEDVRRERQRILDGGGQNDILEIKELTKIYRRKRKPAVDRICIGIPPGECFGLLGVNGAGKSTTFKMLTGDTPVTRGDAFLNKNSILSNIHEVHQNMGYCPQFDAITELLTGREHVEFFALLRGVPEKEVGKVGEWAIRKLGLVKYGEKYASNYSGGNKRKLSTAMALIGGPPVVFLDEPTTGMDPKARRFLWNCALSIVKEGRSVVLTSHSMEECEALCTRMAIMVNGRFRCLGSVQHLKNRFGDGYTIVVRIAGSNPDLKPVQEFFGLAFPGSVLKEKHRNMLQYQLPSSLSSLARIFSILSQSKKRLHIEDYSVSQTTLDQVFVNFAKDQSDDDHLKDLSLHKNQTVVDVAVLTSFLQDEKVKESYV

Sequence of ABCA1 (Mus musculus, UniProt P41233) (P41233 whole entry): as above

CC(C)[C@H](N)C(=O)O [Valine]
Hydrophobicity [1]: 0.825

CC[C@H](C)[C@H](N)C(=O)O [Isoleucine]
Hydrophobicity [1]: 0.943

N=C(N)NCCC[C@H](N)C(=O)O [Arginine]
Hydrophobicity [1]: 0.000

N[C@@H](Cc1c[nH]c2ccccc12)C(=O)O [Tryptophan]
Hydrophobicity [1]: 0.878

N[C@@H](Cc1c[nH]cn1)C(=O)O [Histidine]
Hydrophobicity [1]: 0.165

Apo A-I: full-length Apolipoprotein AI, polypeptide comprising 243 amino acids
requirement of ABCA1 for cholesterol efflux activity (ABCA1 [2]): required ABCA1 for activity
cholesterol efflux at low mass concentrations (ABCA1 [3]; increasing concentrations based on mass): largely ineffective

CSCC[C@H](N)C(=O)O [Methionine]
Hydrophobicity [1]: 0.738

EVRSKLEEWFAAFREFAEEFLARLKS ([dE][dV][dR][dS][dK][dL][dE][dE][dW][dF][dA][dA][dF][dR][dE][dF][dA][dE][dE][dF][dL][dA][dR][dL][dK][dS])
ABCA1-dependent cholesterol efflux (ABCA1 [3]): promoted ABCA1 cholesterol efflux
ABCA1-dependent cholesterol efflux (ABCA1 [3]; listed as D-amino acid analog of SEQ ID NO:4): stimulate ABCA1 cholesterol efflux in a ABCA1-dependent manner

NC(=O)C[C@H](N)C(=O)O [Asparagine]
Hydrophobicity [1]: 0.236

O=C(O)[C@@H]1CCCN1 [Proline]
Hydrophobicity [1]: 0.711

EVRSKLEEWFAAFREFFEEFLARLKS (S1 amphipathic alpha-helix polypeptide core sequence selectively binds HDL, high-affinity ligand for ATP- binding cassette transporter A1 (ABCA1), ABCA1-lipid cholesterol efflux, ABCA1-stablization, anti-oxidant and anti-inflammatory activity) [SEQ ID NO:5]
non-specific efflux activity in the absence of ABCA1 (ABCA1 [2]): minimal
requirement of ABCA1 for cholesterol efflux activity (ABCA1 [2]): required ABCA1 for efflux activity
cholesterol efflux efficiency/potency on per molecule (molar) basis versus apolipoproteins (ABCA1 [3]; Km in molar units): activity similar to full-length Apo A-I, Apo E, and the C-terminal (CT) domain of Apo E
cholesterol efflux from macrophages not induced for ABCA1 (non-specific) (ABCA1 [3]): Low efflux

NCC(=O)O [Glycine]
Hydrophobicity [1]: 0.501

25-mer: SEQ ID NO:5 lacking the C-terminal Ser26 (EVRSKLEEWFAAFREFFEEFLARLK; S1 amphipathic alpha-helix polypeptide core sequence selectively binds HDL, high-affinity ligand for ATP- binding cassette transporter A1 (ABCA1), ABCA1-lipid cholesterol efflux, ABCA1-stablization, anti-oxidant and anti-inflammatory activity)
capacity to stimulate cholesterol efflux at 3 μg/ml (ABCA1 [3]; 3 μg/ml lipid-free peptide, ABCA1-expressing macrophages): retained high capacity to stimulate cholesterol efflux; also recorded: retained high activity

R3→Q: SEQ ID NO:5 with arginine 3 replaced by glutamine (EVQSKLEEWFAAFREFFEEFLARLKS; S1 amphipathic alpha-helix polypeptide core sequence selectively binds HDL, high-affinity ligand for ATP- binding cassette transporter A1 (ABCA1), ABCA1-lipid cholesterol efflux, ABCA1-stablization, anti-oxidant and anti-inflammatory activity)
ABCA1-dependent cholesterol efflux at 30 μg/ml (ABCA1 [3]): mediated cholesterol efflux in an ABCA1 dependent manner
efficiency of ABCA1 cholesterol efflux (concentration dependence) (ABCA1 [3]; concentration dependence curves): high efficiency

E8, 15>D: SEQ ID NO:5 with glutamic acid at positions 8 and 15 replaced with aspartic acid (EVRSKLEDWFAAFRDFFEEFLARLKS; S1 amphipathic alpha-helix polypeptide core sequence selectively binds HDL, high-affinity ligand for ATP- binding cassette transporter A1 (ABCA1), ABCA1-lipid cholesterol efflux, ABCA1-stablization, anti-oxidant and anti-inflammatory activity)
ABCA1-dependent cholesterol efflux (ABCA1 [3]): retained high capacity to stimulate cholesterol efflux in an ABCA1-dependent manner

SKLRALFEEAFERFAAFWEELKSRVE (inverted peptide, ATI-5261 in reverse order)
ABCA1-dependent cholesterol efflux at 30 μg/ml (ABCA1 [3]): stimulated cholesterol efflux in an ABCA1-dependent manner

NCCCC[C@H](N)C(=O)O [Lysine]
Hydrophobicity [1]: 0.283

N[C@@H](Cc1ccccc1)C(=O)O [Phenylalanine]
Hydrophobicity [1]: 1.00

C[C@H](N)C(=O)O [Alanine]
Hydrophobicity [1]: 0.616

S4, 26>A: SEQ ID NO:4 with serine to alanine substitutions at positions 4 and 26 (EVRAKLEEWFAAFREFAEEFLARLKA; ATI-5261 amphipathic alpha-helix polypeptide core sequence selectively binds HDL, high-affinity ligand for ATP-binding cassette transporter A1 (ABCA1), ABCA1-lipid cholesterol efflux, ABCA1-stablization, anti-oxidant and anti- inflammatory activity)
ABCA1-dependent cholesterol efflux (ABCA1 [3]): retained ABCA1-dependent cholesterol efflux activity

N[C@@H](CCC(=O)O)C(=O)O [Glutamate]
Hydrophobicity [1]: 0.043

N[C@@H](Cc1ccc(O)cc1)C(=O)O [Tyrosine]
Hydrophobicity [1]: 0.880

C[C@@H](O)[C@H](N)C(=O)O [Threonine]
Hydrophobicity [1]: 0.450

R3>L: SEQ ID NO:4 polypeptides with arginine at position 3 replaced by leucine (EVLSKLEEWFAAFREFAEEFLARLKS; ATI-5261 amphipathic alpha-helix polypeptide core sequence selectively binds HDL, high-affinity ligand for ATP-binding cassette transporter A1 (ABCA1), ABCA1-lipid cholesterol efflux, ABCA1-stablization, anti-oxidant and anti- inflammatory activity)
ABCA1-dependent cholesterol efflux (ABCA1 [3]): relatively high-levels of cholesterol efflux
cholesterol efflux from macrophages not induced for ABCA1 (non-specific) (ABCA1 [3]): low-levels of cholesterol efflux

EVRSKLEEWFAAFREFFEEFLARL [24-mer polypeptide of SEQ ID NO:5 lacking Lys25-Ser26]
cholesterol efflux: concentration giving maximal efflux [4]: 3 µg/mL

SKLRALFEEAFERFAAFWEELKSRVE [inverted sequence peptide of SEQ ID NO:20, all L-amino acids]
cholesterol efflux: concentration giving maximal efflux [4]: 3 µg/mL

[dS][dK][dL][dR][dA][dL][dF][dE][dE][dA][dF][dE][dR][dF][dA][dA][dF][dW][dE][dE][dL][dK][dS][dR][dV][dE] [inverted sequence peptide of SEQ ID NO:20, all D-amino acids]
cholesterol efflux: concentration giving maximal efflux [4]: 3 µg/mL

[dE][dV][dR][dS][dK][dL][dE][dE][dW][dF][dA][dA][dF][dR][dE][dF][dA][dE][dE][dF][dL][dA][dR][dL][dK][dS] [polypeptide of SEQ ID NO:4 composed of all D-amino acids]
cholesterol efflux: concentration giving maximal efflux [4]: 3 µg/mL

EVRSKLEDWFAAFRDFFEEFLARLKS [E8, 15>D analog of the polypeptide of SEQ ID NO:5]
cholesterol efflux: concentration giving maximal efflux [4]: 3 µg/mL

DVRSKLDDWFAAFRDFFDDFLARLKS [E1, 7, 8, 15, 18, 19>D analog of the polypeptide of SEQ ID NO:5]
cholesterol efflux: concentration giving maximal efflux [4]: 3 µg/mL

EVKSKLEEWFAAFKEFFEEFLAKLKS [R3, 14, 23→K3, 14, 23 analog of the polypeptide of SEQ ID NO:5]
cholesterol efflux: concentration giving maximal efflux [4]: 3 µg/mL

EVRSKLEEWFAAFREFAEEFLARLKY [S26>Y analog of the polypeptide of SEQ ID NO:4]
cholesterol efflux: concentration giving maximal efflux [4]: 3 µg/mL

EVRAKLEEWFAAFREFAEEFLARLKA [S4, 26>A analog of the polypeptide of SEQ ID NO:4]
cholesterol efflux: concentration giving maximal efflux [4]: 3 µg/mL

EVRAKLEEWFAAFREFAEEFLARL [24-mer core peptide of SEQ ID NO:4 with the S4>A substitution]
cholesterol efflux: concentration giving maximal efflux [4]: 3 µg/mL
